According to the DeepSol protein solubility set:

Experiment: soluble on expression in E. coli; label from the status in PepcDB or PDB records

Soluble on expression in E. coli, not soluble:
MGSDKIHHHHHHMNTDARMGAGVSLKAEHYDQALACNLEGLWFEVHPENYMVGGPRLAWLNRIAERHPVSLHGVALSLAADAAPDQDHLQRLRALCDQIEPVLVYYHLAWSTWQGHYHPDLLPFPRSNEALQRIAENIQRCQEVLGRRISIENPSHYLQLQGHEWDEIDFLGELTRRTGCGLLLDINNVYVSAHNLGFSATAYLDRFPAQAITEVHLAGHSDDDQGSLLIDSHDAQVAEPVWALYRKLVSRVGPRPTLIERDDKLPPFTELLAERSIAQSIMTCPGVLP
MGSDKIHHHHHHMNTITPISTRRVTLALQGGGSHGAFTWGVLDRLLEEPRLRIEAVSGTSAGAMNAACLAHGLADSGRQGARDTLERFWTAISNAAAFSPIRRSPLAIWLGNWSVADSMGYLMSTAFGRALSPYQSNPLNINPLRETVERIIDFDAVRACRDLSLFVTATNVHTGRPRIFTREDLSVDAVLASACLPHLFQAVEIDGVPYWDGGYVGNPALWPLIYETDVRDLLLVRINPLIREQTPMTGLEIADRLNEITFNASMFREMRAIAFVGRMLDEGSLDPERYKRMLIHAIEAEDDLKSLGASSKLNAELPFLFHLRDIGRRAADDWLTKNLEKIGYESTVDVASAYL
MGSDKIHHHHHHMNTKVMTAIPFTIDRDWLFTHLHIKPGKPYVEDVENMIEQALTIGKPKAAYRLAYIESKGEDFVVVDGFKFTSRVLRVNLAETFKVVPYVITCGEELERWAKTFHHMFESYCADGIMEAVMHSARVAFFSQIAEEYNLGHAVNMNPGSLEDWPLKEQAPLFQLLGDVKSLIGVELKESFLMSPIKTVSGFRFSKEGSYENCQLCPREKCPGRRAPYEQNLYAEKYQLK
MGSDKIHHHHHHMNVPKAGKVICAGLGPGDPELMSVKSWRALQGATHVAYFRKAGRAGQARAIVEGLLPAGVTEYPMEYPVTTEIHFSDPEYNRQLAAFYDQWADTLAEIAATQTVVVLCEGDPFLYGSFMHLHTRLEGRAEVEIIPGITGMSGCWTATGQPITWGDDVLTVAMATLSEDELTQRIRQTDALVVMKIGRNLPKLRRALEAAGRLQDAWLVERGTMPAQTVQKLTDVDGEVPYFSIVILHGEGRRP
MGSDKIHHHHHHMNYLRLNNITKRFGSFIANDNINLSVASGSIHAILGENGAGKSTLMNIISGLYQPDAGEIYLQEQPIKITSPNEAIKLGIGMIYQHFMLIPKLTVTENIILGIEKTWRLNLEDKQQKIAALSQAYGLEIDPTAKVENLSVGAQQRVEILKVLYRQAKLLILDEPTAVLTPPEVESLIAILRQLASAGNTIIFISHKLEEVMNLCDSVTVLRQGKVVATTSTEAATSQQLATLMVGREVALQLNKSPTLPGEIILSVQNLQVADERNILAVNNVSFELRAGEILGIAGVDGNGQRELADAIAFVRTIKQGKIEFTPKHSSVGYIPEDRQTMGLVLQFSIAQNLILKAFKYLPFCRRFLLQQEAIANRAQAAMQEFDIRASGKDILVSQLSGGNQQKVVLARELALTPALIIAMQPTRGLDVGATIAVQSRILTERDRGAAILYISTELEEVMAMSDRIAVIYRGEFVAILDAATAKVEEIGLLMAGGIN
MGSDKIHHHHHHMNYTNEVAKMTCVAKGPNHGPAPIPEEGKWVSAKEIKDISGLTHGVGRCAPQQGACKLTLNVKEGIIQEALVETIGCSGMTHSAAMAAEILSGKTILEALNTDLVCDAINTAMRELFLQIVYGRTQTAFSEGGLPVGAGLEDLGKGHRSQVGTMYSSAAKGPRYLEMVEGYVTKTGLDENNEIIGYEFINFGKMMDMIKQGMDANEAMKKATGNYGRFADAVKVIDPREE
MGSDKIHHHHHHMPENLIIPSVDLRIGALEEYNRRQKEKAHHRQKGPKPRPCITLSREFGCEGYPVAESLLKLMPEQTGDQWVLVDKDVLDEVARRHHVSREILEALGTKNRILSQVLATFSERWKTDHEYFELLCSHIVSLAEQGNVIIVGLGGAIITHHREHCYDFRIFGSREFKIGSICQRMNLPPDKAADLIEKQQAQIDNFTREFLFEDEANPAIYDLLFNNDRMCPETMARTIADYVAGRIAAGTADKRHV
MGSDKIHHHHHHMPMNRIDRLLGMITLLQAKKFVSAEKIADKFKISKRTVFRDIKAICEQGIPVGSEPNKGYFIVDGYFLPPVLFNNDEANALLLTESLVKGFADKSISKHYSNALDKIKAGLKQVDKDKLEHMQDAIKFQLPERMNNDFEYLSILQVAVSDKKIIYIDYKNNKEEVSKREIEPIGLIFYAFSWHLIGWCHHRKAYRDFKVSRIIQMKNTGVPFKKNKHMPLSEYMKELPVNY
MGSDKIHHHHHHMPRLIVLNDNTPSRGLINDWGWSILIEGRERFLFDADTNPLVLAHNSKVLNVNLRNLDFAVLSHWHYDHYGGFEYIAELNPGIKFYAPPQGLALAMRWGFQPIAINFGGKIEEEVYTSGVIDGIEQAIGLETSSGLVVIVGCSHPGVDRMVEEVLKVSGYEKAYLVIGGFHSPPIHRLRNLARLSELIAPAHCSGDVAKAFIKRNYKEKYVDVKTGTILEI
MGSDKIHHHHHHMPRQWNTDALSAGHLSCSSFFPFALTNKIIGRIKKKNNRMKGNNQLCTLLKLCLLSMLAFGTAKAQIQIVGAPSMKALDDSPNRLQVFMLHTLNPASVILRFAGAGTGKLYRYTTKAIEAEEVTTATYSDGMWTLTAPQLNCGYFVSGDGRLPQYYWISNYADYALFVSAVTGKPSETSPCISMDLAVDAAIRPIPYFQPNGIPRRLDRHVQISYPDMEWDAEARLFRPSTKEVEVEASDDERTLVVSASLADAVYTIHGDRFTKELSLPFTAVATDEILTPKVEVYAFVDKVDGGSAIGDNTPEEGDASLVSAPFTVMLAAYGNEPSAANFVWRIYRTEEGAENSVLVYNGTSTEFTFRQAGIYSILLQATNRTGTCTDEVLLENYFKVAESSLIVPNAFSPYGSPGVNDVFRVKHSSLVHFDGRIFDSWGKQIFRWTNPDEGWDGKYRGKMMPTGVYYYVIEAEGADGIKYKRKGDINILRPAYEIPLGGNLPR
MGSDKIHHHHHHMPSFKTYPLESIGYDEALRKQFRLVDEITRHFKGSEFLSRGDLGVVPGLNRPRYTKRVEEILAAYFHAEAAMLVRGAGTAAIRMALHSYLTAGQTLLVHDAPIYPTTQTSIEMMSLRTIRADFNDLNHQQLPESPDGILVQYTRQKPDDSYDMAKVLAFFKQRYPSVPIVTDDNYAVMKVHKIGVELGASLSCFSTFKLLGPEGIGCIVGDKSAIQKLRSANYSGGSQVQGHEAIDVLRGLTYAPVALAAQANVVTELVERLNGNEIPGISEAYVANAQSKVLLVEFNQPIAEKVLKYTNDLGAAPNPVGAESKYEIAPMFYRVSGTFKKFDPNLLKTTIRINPYRCGADTIMRILAESVEKVMA
MGSDKIHHHHHHMPSIENMIAWMQARKGKVTYSMTSRMGPNSYDCSSSIFFAMIAGGFLSAGSMGNTETLFGMSGTKLKEISRGEVQRGDVFISGTPGGSAGSDGHTGIFLSNGSFIHCSYTHNGIAVDTNDAYMSTRLPHHFYRIVGSGSGNTDNKPQMVTLNVDGQFGNATAKRLQEYFDTAGKDGVISHQYKQTFNQNIYAAQFDSSLTGSNVVKALQRFLGIGQDGLFGQGTIKALQKHLGTTQDGTISPVSDSVRELQRRLNANKL
MGSDKIHHHHHHMPSLREQQHPLIRQLADCIEAAWHQHLDLSPYHLPDELGYVEGRLEGEKLTIENRCYQTPQFRKMHLELANIGNMLDILHCVMFPRPQYNLPMFGCDLVGGRGQISAAIADLSPIQLERTLPESYTTALAQLPVLNFSQPRELPEWGNIFSDFCIFVRPGSPEEEAMFLSRVREFLDIHCMQAIASHPVSVEQVTQNLAGQHNYCTKQQQNDKTRRVLEKAFGPVWAENYMTTVLFDLPT
MGSDKIHHHHHHMPTIHFVDGEKGGVGKSLFARTMIQYCLDKRIPFVPVETDRSNPDVAGVYKEICKYAVFSENERQANKADRIFEWAIERPVIVNLAAQSHRAVQGWIESNQLLELGSSQGVMFCKWFISTGGYDSINLFTQSVNTYGEKIPHILVRNLGLCDDWEHLESDSNFQNIVNKYQIKVIDFPKLAYRERNIIDQNRLTFAEAREYKEFGIIGKQRVVNFLKLAYGAFEKVGIWYEKVE
MGSDKIHHHHHHMPWLRFCDRDRSVHMLVAMLDLTREKAEQVMRRGPWLASMTEPFRTELLRHAHLQKFAPDQVVYRHGDAVGGMYGLVAGSLTINSAPPDAASRLIHLGMPGAWTGEGPFLTGQPRRVELRALGGAWMMHVPLDALEQMMARDPGVSRAIAMNTVFTVDVLLRIIHDLQKRAVGRRIASVLQRASWVGDMPIPLSQTDLGIMANASRQQVNTAMQRFARAGWVSYTYRSVTVSNSQALRRFSEGDGSEW
MGSDKIHHHHHHMQALQTFNFEELPVRTLEVDGEPYFIGKDVADILGYANGRDALSKHVDEDDKKVLTSRNTTLENLPNRGLTAVNESGLYSLIFSSKLESAKRFKRWVTSDVLPAIRKYGIYATDNVIEQTLKDPDYIITVLTEYKKEKEQNLLLQQEIGELKPKADYVDEILKSTGTLATTQIAADYGISAQKLNKLLHEARLQRKVNKQWVLYSEHMGKSYTDSDTITIVRSDGREDTVLQTRWTQKGRLKIHEIMTEFGYEANLGGA
MGSDKIHHHHHHMQDKNFDKLAQKFAKNIYGTPKGEIRAAVLWRDLAPALAQFGDKKLRILDAGGGFGYFSQKLARLGHEVVLCDISAEMLAQAKEQIDASDTPLAIRLVHAPIQALSITEHGMFDLILCHAVVEWLADAKTTMEGLLTMLKPNGLFSLMFYNKEAMRFHALVSGNFDYVAADLKVKKKVRLTPTHPLYIHEVKLWFAQWQMALLKESGVRVIHDYLKKQQAADFDYQKLLSMELEYSQREPYISLGRYVHFLGQSTATHSE
MGSDKIHHHHHHMQEVATEARIGPNSIIQTVAAARAQYGEEAVADWLRRTGRGHLLEAMPDHMLPESEFGDLIADLRFWLGVSAAADVLAQSGDLTAQYVATHRVPVPIRWLLPRLPVGLALRIFLPAIARHAWTFAGSGRFGYTLQPAWRLTLADSVEARGVRATEPVCAYYRAAFEGLLRRVVCDRLRVHEVACRAMGTGRCEFAVELSR
MGSDKIHHHHHHMQFSPEQDNALKAVSAWLKEGRSPLFRLFGYAGTGKTTLARYFAETVDGSVQFTAFTGKAAQVLRSKGASNACTIHSLIYCPRGEEEVSDEVTGKKSIAPTFALNRRSAAAQAKLIIVDECSMVDEQLARDLMSFRTPILVLGDPGQLPPISGGGFFSNGVPDFLLSEIHRQARDNPIVRLAMDVREGRDIPYGNYGAARVVTRKEVHQQLVLDADQLLVGINRTRYLYNKRLRVLKGFTAAYPQAGDKLVCLRNDPAKGLLNGSLWKVMTSQKETVKPGVNLLVKPEESERGVVKIKLLKALFENPDSDISWQLKKRYDDFDYGYALTVHKAQGSQWNNVVLFDESFAFRDMSARWLYTGITRAAERLTIVR
MGSDKIHHHHHHMQGKKFISPGAWFSMNYPSDWNEFEDGEGSFLFYNPDVWTGNFRISAFKGNASYGKDAIRQELKENDSASLVKIGTWDCAYSKEMFQEEGTYYTSHLWITGTGNIAFECSFTVPKGGSAKEAEEVIATLEARKEGEKYPAELIPVRLSEIYQINEGYEWVVSTVKQELKKDFQGVEEDLEKIQQVIDSGKISPKKKDEWLAIGITVCAILTNEVEGMEWKTLIDGNREVPVLEYQGRTIDPMKIAWSKVKAGQPCNIAEAYQSAIDHH
